# Experimental data reported in publication doi:10.1101/2021.03.04.433768 (bioRxiv, 2021).
# Molecular target: HIV-1 envelop trimer (BG505 DS-SOSIP) (HIV-1 group M subtype A, isolate BG505, UniProt Q2N0S6, stabilised)
binder,measurement,value
"VHH9 row 4 (VHH9 group, Nb10-Nb13) (VHH) VHH: QVKLEESGGGSVQAGGSLRLSCTAPGFTSNSCGMAWYRQAPGKEREFVSSISTDGTTSYADSVKGRFTISKDKAKDTVYLQMNSLKPEDTAMYSCKTYGPYCYFDVWGAGTTVTVSA",binding result,binds
